Values of other authors in PMC4132707.
pKd: −log10 of the molar value.

Key:
[1] = molecular target: H1K26me3 peptide (Homo sapiens) (UniProt P10412)
[2] = molecular target: H3K27me3 peptide (Homo sapiens) (UniProt P68431)

Chain of EED (O75530 2-441): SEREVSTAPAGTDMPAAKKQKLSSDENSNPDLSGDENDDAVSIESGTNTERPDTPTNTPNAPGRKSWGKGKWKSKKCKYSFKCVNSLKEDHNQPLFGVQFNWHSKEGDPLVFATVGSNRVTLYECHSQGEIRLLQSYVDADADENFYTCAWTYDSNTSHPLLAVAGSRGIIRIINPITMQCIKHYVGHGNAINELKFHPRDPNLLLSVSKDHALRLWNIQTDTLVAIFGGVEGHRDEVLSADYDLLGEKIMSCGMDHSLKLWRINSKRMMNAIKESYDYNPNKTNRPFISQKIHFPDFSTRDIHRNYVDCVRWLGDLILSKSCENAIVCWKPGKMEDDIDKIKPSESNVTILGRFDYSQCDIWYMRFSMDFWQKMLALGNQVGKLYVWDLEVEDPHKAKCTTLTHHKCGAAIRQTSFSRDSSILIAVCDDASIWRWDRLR
Chain of H1K26me3 peptide (Homo sapiens) (P10412 2-219): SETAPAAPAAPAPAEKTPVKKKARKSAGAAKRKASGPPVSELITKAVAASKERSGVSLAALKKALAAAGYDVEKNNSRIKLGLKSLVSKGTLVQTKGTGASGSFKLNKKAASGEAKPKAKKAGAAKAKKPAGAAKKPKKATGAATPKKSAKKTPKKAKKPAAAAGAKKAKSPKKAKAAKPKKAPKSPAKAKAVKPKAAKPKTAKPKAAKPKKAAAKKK

For EED (from UniProt O75530), the pKd [1] is listed as less than 4.70 and the pKd [2] is listed as less than 4.70.
